Data from patent US20240174744A1 (SCIRHOM, published 2024).

How the values were obtained:
[1] = molecular target: T1, hiR2-FL-P533-T7 (human iRhom2 full length with deletion of P533, 3 x T7 tag) (human, UniProt Q6PJF5 1-856); experiment: FACS on cells of the row P533-
T1 construct: The change is a deletion of one residue, not a substitution
T1 sequence: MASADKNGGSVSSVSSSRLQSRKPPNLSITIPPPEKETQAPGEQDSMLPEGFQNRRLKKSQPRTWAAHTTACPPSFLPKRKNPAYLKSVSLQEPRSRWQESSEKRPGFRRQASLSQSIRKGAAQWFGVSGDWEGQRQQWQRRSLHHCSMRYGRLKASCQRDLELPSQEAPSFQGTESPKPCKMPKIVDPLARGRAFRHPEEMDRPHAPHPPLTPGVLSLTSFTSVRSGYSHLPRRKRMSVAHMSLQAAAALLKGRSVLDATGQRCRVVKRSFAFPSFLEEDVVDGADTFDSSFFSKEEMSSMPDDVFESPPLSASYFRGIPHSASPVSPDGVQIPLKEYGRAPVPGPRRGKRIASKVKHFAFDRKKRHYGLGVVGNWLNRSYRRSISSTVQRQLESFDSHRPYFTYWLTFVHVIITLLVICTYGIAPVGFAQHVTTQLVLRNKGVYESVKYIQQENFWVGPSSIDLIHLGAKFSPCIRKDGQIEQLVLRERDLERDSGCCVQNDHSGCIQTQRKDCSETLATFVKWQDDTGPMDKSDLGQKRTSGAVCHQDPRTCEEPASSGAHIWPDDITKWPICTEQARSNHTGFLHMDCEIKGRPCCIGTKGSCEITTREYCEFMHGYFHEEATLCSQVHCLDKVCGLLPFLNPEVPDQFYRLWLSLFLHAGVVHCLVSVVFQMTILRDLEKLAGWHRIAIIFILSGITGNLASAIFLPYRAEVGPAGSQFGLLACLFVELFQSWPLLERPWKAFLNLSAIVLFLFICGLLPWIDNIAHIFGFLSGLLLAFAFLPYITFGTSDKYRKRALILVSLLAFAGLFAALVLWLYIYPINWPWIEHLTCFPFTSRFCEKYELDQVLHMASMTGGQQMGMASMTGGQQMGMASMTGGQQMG

mouse iR1 wild type = molecular target: T2, mouse iR1 wild type (mouse); experiment: FACS on cells expressing mouse iR1 wild type, vs human iR2 wild type = 100%
T2 construct: wild type; also called mouse iRhom1 wild type; miR1-FL WT
T2 sequence (Q6PIX5 whole entry): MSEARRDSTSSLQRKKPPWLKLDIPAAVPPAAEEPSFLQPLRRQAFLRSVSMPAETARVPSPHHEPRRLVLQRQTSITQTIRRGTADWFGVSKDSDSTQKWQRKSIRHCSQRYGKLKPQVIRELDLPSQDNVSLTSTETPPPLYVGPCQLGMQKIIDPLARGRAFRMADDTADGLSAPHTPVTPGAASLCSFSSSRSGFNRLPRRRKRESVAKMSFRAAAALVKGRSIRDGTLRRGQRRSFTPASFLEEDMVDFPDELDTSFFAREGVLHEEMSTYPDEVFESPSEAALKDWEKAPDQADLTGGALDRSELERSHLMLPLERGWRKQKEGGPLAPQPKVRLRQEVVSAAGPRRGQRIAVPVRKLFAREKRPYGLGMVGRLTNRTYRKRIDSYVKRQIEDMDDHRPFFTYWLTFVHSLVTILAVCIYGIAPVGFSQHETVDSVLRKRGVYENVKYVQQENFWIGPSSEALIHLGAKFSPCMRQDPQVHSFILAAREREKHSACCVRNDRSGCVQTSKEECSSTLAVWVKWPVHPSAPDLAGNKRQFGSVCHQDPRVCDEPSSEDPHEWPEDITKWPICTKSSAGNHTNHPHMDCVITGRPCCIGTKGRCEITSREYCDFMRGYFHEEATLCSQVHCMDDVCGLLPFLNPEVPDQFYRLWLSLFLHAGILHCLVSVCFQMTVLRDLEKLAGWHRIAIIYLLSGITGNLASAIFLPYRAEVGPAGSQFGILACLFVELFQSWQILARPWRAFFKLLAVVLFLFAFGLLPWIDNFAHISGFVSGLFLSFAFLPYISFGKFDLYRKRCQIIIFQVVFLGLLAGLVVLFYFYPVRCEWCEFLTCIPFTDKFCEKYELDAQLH

[2] = molecular target: T3, hiR2-FL-L539A-T7 (human iRhom2 full length L539A, 3 x T7 tag) (human, UniProt Q6PJF5 1-856); experiment: FACS on cells of the row L539A
T3 sequence: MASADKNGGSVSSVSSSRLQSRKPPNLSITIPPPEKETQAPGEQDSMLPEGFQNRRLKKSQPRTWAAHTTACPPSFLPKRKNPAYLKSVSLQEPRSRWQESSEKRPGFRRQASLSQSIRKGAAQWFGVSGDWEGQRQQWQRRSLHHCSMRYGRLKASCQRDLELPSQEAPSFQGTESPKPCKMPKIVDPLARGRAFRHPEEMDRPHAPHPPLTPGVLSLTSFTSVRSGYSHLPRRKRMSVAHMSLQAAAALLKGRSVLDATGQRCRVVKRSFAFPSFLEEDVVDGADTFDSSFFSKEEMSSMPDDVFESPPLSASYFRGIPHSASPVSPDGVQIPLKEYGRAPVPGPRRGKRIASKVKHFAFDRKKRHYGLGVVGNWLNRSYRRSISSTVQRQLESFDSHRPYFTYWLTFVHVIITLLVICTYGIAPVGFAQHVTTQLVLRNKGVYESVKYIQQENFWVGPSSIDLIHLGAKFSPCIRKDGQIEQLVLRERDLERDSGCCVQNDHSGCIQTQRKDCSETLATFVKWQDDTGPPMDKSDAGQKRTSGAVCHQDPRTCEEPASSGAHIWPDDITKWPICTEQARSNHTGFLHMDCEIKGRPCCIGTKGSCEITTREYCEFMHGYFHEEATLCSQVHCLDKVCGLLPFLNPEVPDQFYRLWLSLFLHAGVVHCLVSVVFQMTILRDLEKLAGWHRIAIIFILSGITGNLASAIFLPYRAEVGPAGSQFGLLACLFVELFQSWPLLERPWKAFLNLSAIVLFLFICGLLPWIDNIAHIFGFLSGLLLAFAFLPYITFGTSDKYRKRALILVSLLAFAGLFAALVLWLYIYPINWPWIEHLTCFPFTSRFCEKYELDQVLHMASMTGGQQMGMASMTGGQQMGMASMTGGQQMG

B1: antibody 16 (antibody, V domains shown)
VH: QVTLKESGPGILQPSQTLSLTCSFSGFSLSTFALGVGWIRQPSGRGLEWLAHIWWDDDKYYNPALKSRLTISKDTSKNHVFLKIANVDTADTATYYCARITTYYYGMDYWGQGTSVTVSS
VL: DIVLSQSPATLSVTPGDSVSLFCRASQSIGNHLHWYQQESHASPRLLIKYASQSISGIPSRFSGSGSGTDFTLSINSVETEDFGMYFCQQSYNWPLTFGAGTKLELK
notes: Mouse IgG, kappa light chain; also called clone #16; m16
B1 was tested, and the binding result [1] was “no binding (tested: 3 µg/ml)” and the “grade of loss of binding vs wild type” value (mouse iR1 wild type) was 3 grade (3 => 95% loss of binding vs wild type).

B2: antibody 3 (antibody, V domains shown)
VH: QVTLKESGPGILQPSQTLSLTCSFSGFSLTTFAMGIGWVRQPSGKGLEWLAHIWWDGEKYNNPVLKSRLTISKDTSKNQVFLRIANVDTPDTATYYCARISSIYYIIDNWGQGTSVTVSS
VL: DIVLTQSPATLSVTPGHSVSLSCRASQSISNNLHWYQKKSHESPRLLIKYVSQSISGIPSRFSGSGSGTDFTLSINSVETEDFGMYFCQQSYNWPLTFGAGTKLELK
notes: Mouse IgG, kappa light chain; also called clone #3; purified antibody 3
In the case of B2, the binding result [2] is reported as “no binding (tested: 3 µg/ml)” and the “grade of loss of binding vs wild type” value (mouse iR1 wild type) is reported as 3 grade (3 => 95% loss of binding vs wild type).

B3: antibody 43 (antibody, V domains shown)
VH: QVALKESGPGILQPSQTLSLTCSFSGFSLSTFGMGVGWIRQSSGKGLEWLANIWWDDDKYYNPALKSRLTISKDASKNQAFLKIANVDTADTATYYCARIGNYGSNYWYFDVWGTGTTVTVSS
VL: QIVLTQSPAIMSASPGERVTMTCSANSRISYMYWYQQKPGSSPRLLIYDTSNLASGVPVRFSGSGSGTSYSLTISRMEAEDAATYNCQQWSSYPLTFGAGTKLELK
notes: Mouse IgG, kappa light chain; also called clone #43
B3 was tested, and the binding result [2] was “no binding (tested: 3 µg/ml)”, the binding result [1] was “no binding (tested: 3 µg/ml)” and the “grade of loss of binding vs wild type” value (mouse iR1 wild type) was 3 grade (3 => 95% loss of binding vs wild type).

B4: antibody 5 (antibody, V domains shown)
VH: QVTLKESGPGILQPSQTLSLTCSFSGFSLSTFGMGVGWIRQPSGKGLEWLAHIWWDDEKYYNSALKSRLTISKATSKNQAFLKIANVDTADTATYYCARISNYGSNYWYFNVWGTGTTVTVSS
VL: QVVLTQSPALMSASPGEKVTMTCSAGSSVSCMYWYQQKPGSSPRVLIYDTSNLASGVPARFTGSGSGTSYSLTISRMEAEDAASYYCQQWNSYPLTFGAGTKLELK
notes: Mouse IgG, kappa light chain; also called clone #5; purified antibody 5
In the case of B4, the binding result [2] is reported as “no binding (tested: 3 µg/ml)”, the binding result [1] is reported as “no binding (tested: 3 µg/ml)” and the “grade of loss of binding vs wild type” value (mouse iR1 wild type) is reported as 3 grade (3 => 95% loss of binding vs wild type).

B5: antibody 44 (antibody, V domains shown)
VH: QVTLKESGPGILQPSQTLSLTCSFSGFSLSTFGMGVGWIRQPSEKGLEWLAHIWWDDDKYYNPALKSRLTISKDTSKNQIFLKITNVDTAETATYYCSRIGNYGSNYWYFDVWGTGTTVTVSS
VL: QIVLTQSPAVMSASPGEKVTMTCTASSSVYYMYWYQQTPGSSPRLLIYDTSNLASGVPVRFSGSGSGTSYSLTISRMEAEDAATYYCQQWNTYPLTFGAGTKLELK
notes: Mouse IgG, kappa light chain; also called clone #44; m44
For B5, the binding result [2] was “no binding (tested: 3 µg/ml)”, the binding result [1] was “no binding (tested: 3 µg/ml)” and the “grade of loss of binding vs wild type” value (mouse iR1 wild type) was 3 grade (3 => 95% loss of binding vs wild type).

B6: antibody 42 (antibody, V domains shown)
VH: QVTLKESGPGILQPSQTLSLTCSLSGFSLSTFGRGVGWIRQPSGKGLEWLAHIWWDDEKYYNPALKSRLTISKDTSKNQVFLRIANVDTADTATYYCARIQNYGSNYWYFDVWGTGTTVTVSS
VL: LIVLTQSPAIMSASPGEKVTMTCGATSRISYMFWYQQKPGSSPRVLIYDTSNLASGVPVRFSGSGSGTSYSLTISRVEAEDVATYYCQQWNSYPLTFGAGTKLELK
notes: Mouse IgG, kappa light chain; also called clone #42; m42
With B6 the binding result [2] was “no binding (tested: 3 µg/ml)”, the binding result [1] was “no binding (tested: 3 µg/ml)” and the “grade of loss of binding vs wild type” value (mouse iR1 wild type) was 3 grade (3 => 95% loss of binding vs wild type).

B7: antibody 22 (antibody, V domains shown)
VH: QVTLKESGPGILQPSQTLSLTCSFSGFSLSTFGMGVGWIRQPSGKGLEWLAHIWWDDEKYYNSALKSRLTISKATSKNQVFLKIANVDTADTATYYCARISNYGSNYWYFNVWGTGTTVTVSS
VL: QVVLTQSPALMSASPGEKVTMTCSAGSSVSYMYWYQQKPGSSPRVLIYDTSNLASGVPARFTGSGSGTSYSLTISRMEAEDAATYYCQQWNSYPLTFGAGTKLELK
notes: Mouse IgG, kappa light chain; also called clone #22; m22
B7 was tested, and the binding result [2] was “no binding (tested: 3 µg/ml)”, the binding result [1] was “no binding (tested: 3 µg/ml)” and the “grade of loss of binding vs wild type” value (mouse iR1 wild type) was 3 grade (3 => 95% loss of binding vs wild type).

B8: antibody 50 (antibody, V domains shown)
VH: QVQLQQSGAELVRPGASVKVSCKASGYAFSNYLIEWVKQRPGQGLEWIGVINPGSGFTKYNEKFKGKATLTADKSSSTAYMQLSSLTSEDSAVYFCARGLYRAMDYWGQGTSVTVSS
VL: DIQMTQSPASQSASLGESVTITCLASQTIGTWLAWYQQKPGKSPQLLIYAAASLADGVPSRFSGGGSGTKFSFKISSLQAEDFVNYYCQQIYSTPYTFGGGTKLEIK
notes: Mouse IgG, kappa light chain; also called clone #50; purified antibody 50
In the case of B8, the “grade of loss of binding vs wild type” value (mouse iR1 wild type) is reported as 3 grade (3 => 95% loss of binding vs wild type).

B9: antibody 34 (antibody, V domains shown)
VH: QVTLKESGPGILQPSQTLSLTCSFSGFSLSTFSLGVGWIRQSSGKGLEWLAHIWWDDEKYYNPALKSRLTISKDTSKNQVFLKIANVDAADTATYYCARAYYSKSYYALDYWGQGTSVTVSS
VL: DIQMTQSPSSLSASLGERVSLTCRASQEISGYLSWLQQKPDGTIKRLIYAASTLDSGVPKRFSGSRSGSDYSLAISSLESEDFADYYCLQYANFPFTFGSGTKLEIK
notes: Mouse IgG, kappa light chain; also called clone #34; m34
In the case of B9, the binding result [2] is reported as “no binding (tested: 3 µg/ml)”, the binding result [1] is reported as “no binding (tested: 3 µg/ml)” and the “grade of loss of binding vs wild type” value (mouse iR1 wild type) is reported as 3 grade (3 => 95% loss of binding vs wild type).
